Kd data for one substance are collected here from article PMC9747694.

The assay has as its target SARS-CoV-2 XBB.1 S2P spike trimer (SARS-CoV-2). Kind of assay: SPR; spike captured through its C-terminal His-tag on a CM5 chip with anti-His antibodies (His Capture Kit); serially diluted human ACE2-Fc flowed over; HBS-EP+ buffer; 25°C; Biacore T200, single-cycle mode; 1:1 binding model. For orientation: Surface plasmon resonance follows binding to a sensor surface in real time, without labels.

Chain of human ACE2-Fc protein (from pcDNA3-sACE2-WT(732)-IgG1) (Q9BYF1 18-732): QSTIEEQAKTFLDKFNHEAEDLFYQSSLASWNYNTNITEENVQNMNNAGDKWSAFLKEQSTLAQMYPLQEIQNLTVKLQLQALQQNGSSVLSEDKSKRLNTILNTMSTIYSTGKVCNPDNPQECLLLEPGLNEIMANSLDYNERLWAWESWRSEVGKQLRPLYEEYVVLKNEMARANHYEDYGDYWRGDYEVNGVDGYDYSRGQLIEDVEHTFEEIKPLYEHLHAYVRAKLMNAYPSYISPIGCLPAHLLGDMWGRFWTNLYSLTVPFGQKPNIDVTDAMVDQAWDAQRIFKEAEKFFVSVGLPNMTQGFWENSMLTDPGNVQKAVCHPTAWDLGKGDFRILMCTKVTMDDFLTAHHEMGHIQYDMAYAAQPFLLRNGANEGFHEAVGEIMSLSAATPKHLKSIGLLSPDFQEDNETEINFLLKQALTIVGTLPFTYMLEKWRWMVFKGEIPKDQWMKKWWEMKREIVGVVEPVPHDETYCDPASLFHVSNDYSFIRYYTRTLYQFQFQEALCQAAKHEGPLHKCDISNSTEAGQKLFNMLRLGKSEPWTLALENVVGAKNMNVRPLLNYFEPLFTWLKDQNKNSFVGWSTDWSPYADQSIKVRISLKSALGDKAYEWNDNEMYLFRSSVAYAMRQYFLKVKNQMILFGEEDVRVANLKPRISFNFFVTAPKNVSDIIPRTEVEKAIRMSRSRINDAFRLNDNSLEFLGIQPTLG

Regarding “human ACE2-Fc protein (from pcDNA3-sACE2-WT(732)-IgG1) (from UniProt Q9BYF1 18-732) (Fc fusion)”, the Kd – broadly, a measure of binding affinity in units of concentration – amounted to 2.06 nM.
